# Assay: soluble on expression in E. coli; label from the status in PepcDB or PDB records
row,Sequence,soluble on expression in E. coli
1,MADETIAIVDADATAETRSLLSYLDGVRGEGILFGHQHTTSFGLTTGPTDGTTSDVKNVTGDFPAVFGWDTLIIEGNERPGLAENTRDENIALFADYIRKADAIGGVNTVSAHVENFVTGGSFYDTSGDTLRAVLPGGSHHAELVAYLDDIAELADASRRDDGTLIPIVFRPWHENAGSWFWWGAAYGSPGEYQELYRFTVEYLRDVKGVSNFLYAWGPGGGFGGNRDVYLRTYPGDAFVDVLGLDTYDSTGSDAFLAGLVADLRMIAEIADEKGKVSAFTEFGVSGGVGTNGSSPAQWFTKVLAAIKADPVASRNAYMETWRNADAGQHFVPVPGDALLEDFQAYAADPFTLFASEVTGAFDRTVAAAPAQPVVHIASPADGARVASAPTTVRVRVGGTDVQSVTVEVAQGGTVVDTLDLAYDGALWWTAPWSPTSAQLDNSTYTVTATATTAAGTLDVTNEVAAALEHHHHHH,soluble
2,MLLSLYIPPGRPIPDVLNLLRQEYSIAQNIKLKRTRDAVTSAIQSAIDRLTQIPKVPDNGLVIFCGENFETEESKCFVFSPPEKVTIFFYRTDKYFHTEFLEDMIEENDVFGLIIVERDYATIGILKGTRIEVLDEFEGFVPGKHMMGGQSQRRIDRIIEEMYANFLKEVGEKANSYLLPYLESGKLKGILLGGPGYAKKDFYDGDYLDYRLKKLVLLPLIDIPDQGDAGLKELVMKAQDILKNQKYVQVQNLLEELKYHIAKDDGLVVYGIEEIRKALHMGAVDSLVIYDEPNSELEKLSQEAENYGTKVYVVGDELPDAEWVKKTFGGAIGKLRYKIY,soluble
3,MTINYQFGDVDAHGAMIRAQAGSLEAEHQAIISDVLTASDFWGGAGSAACQGFITQLGRNFQVIYEQANAHGQKVQAAGNNMAQTDSAVGSSWA,not soluble
4,MKTKTDFLKMKEQGEPITMLTAYDYPSAKLAEEAEVDMILVGDSLGMVVLGYDSTVPVTVEDMIHHTKAVRRGAKETFIVTDMPFMSYHVSLQDTMVNARRIVQESGAHALKVEGAGEVISTIHYLTNAGIPVVAHLGLTPQSVGVLGGYKVQGKDAESAKKLIEDAKKCEEAGAIALVLECVPMQLAELISEQLTIPTIGIGAGQKVDGQVLVYHDLISYGVNRVPKFVKQYTSVQEEIVRGISQYVAEVKTRQFPEEKHSFTMKEEECLALYGGKQS,not soluble
5,MSLNFTALDFETANTHKTSICAVGMAIVEDGKVVKTISKLIKPVPDFYSYWNVQIHGITPDMTADAPYFIDVWQELKQYIDYSTLVAHNAAFDVGALRSILTTHEVSFPKTDYFCSCSVSRKVFKEIENHKLSTVCRHIDVPLNHHEAESDAIGAAQIIIKAGERLGANSIEELMAMLKMKLKVEGHHHHHH,not soluble
6,MWYTGTGDKGKTKVPSVGEVWKDSEIVKALGDLDELNSVLGVVSSLYPELSEVIQKLQNDIFSISSEIAGFDMNFSDEKVKGIEELITNYSKELEPLRNFVLPGGHIASSFLHLARAVCRRAERSVVTLLKESKAKEVHAKYLNRLSSLLFVLALVVNKRTNNPNVIWRGKD,soluble
7,MVMIISTMEPQVSNGPTSNTSNGPSSNNRNCPSPMQTGATTDDSKTNLIVNYLPQNMTQEEFRSLFGSIGEIESCKLVRDKITGQSLGYGFVNYIDPKDAEKAINTLNGLRLQTKTIKVSYARPSSASIRDANLYVSGLPKTMTQKELEQLFSQYGRIITSRILVGQVTGVSRGVGFIRFDKRIEAEEAIKGLNGQKPSGATEPITVKFANNPSQKSSQALLSQLYQSPNRRYPGPLHHQAQRFRLDNLLNMAYGVKRFSPITIDGMTSLVGMNIPGHTGTGWCIFVYNLSPDSDESVLWQLFGPFGAVNNVKVIRDFNTNKCKGFGFVTMTNYDEAAMAITSLNGYRLGDRVLQVSFKTNKAHKS,soluble
8,MPIVRWGKTIKQELSEGWSRVIQHELTGKLDGHHGGFHETGDESMSDDLSDQARSTAVKQLKALGLSTYAARTFVALISLGEGTAQDVSEVADVPRTRVYDAADELRDRGLVDVKQSSPRRYWAISTETAGRHFEQEYDHRVTVLTNALDRLASANRSTEQQGVWTVTGRDTVTGRVVDFISSADDEVVYMTAEELLTDEIAESLSTASDRGVTIRLAEMSQSVEAQLERDVPDAQLFESAWEWSDTPAGRLLMIDQQKTLVSVLVGANGGYSLEPSDETAIWGTGQSNSLVVVLKALFAWQLANNRE,not soluble
9,MSLRAGVTGGPQIITKVITMIKFVLDTSIFVNPDVRKKFGETPTEAMKTFLHYAENLFGKVEFYMPPGIYRELMHFVEEEEVSPDIELYIIKKPPNVHDIKIPAFVVYELIEDIRRRVDKGLRVAEKAVRESVIDTSNVDKIIQKLRRNYRKALREGILDSKEDFELILLAKEIDGIIVSADVGILTWAEKMGIKWVDAFKFKEVLSELVEKFKRSESEKERKEGHHHHHH,not soluble
10,GSNRSLIVTTILEEPYVLFKKSDKPLYGNDRFEGYCIDLLRELSTILGFTYEIRLVEDGKYGAQDDVNGQWNGMVRELIDHKADLAVAPLAITCVREKVIDFSKPFMTLGISILYRKGTPIDSADDLAKQTKIEYGAVEDGATMTFFKKSKISTYDKMWAFMSSRRQSVLVKSNEEGIQRVLTSDYAFLMESTTIEFVTQRNCNLTQIGGLIDSKGYGVGTPMGSPYRDKITIAICQLQEEGKLHMMKEKWWRGNGCPS,soluble
11,MTTFIQLHLLTAYPAANLNRDDTGAPKTVVLGGATRLRISSQSLKRAWRTSELFEQALAGHIGIRTGRIAREAAQILVDSGIDAKKAVEYVKNIANCFGKVKEDKKPKDELTNAETEQLVHISPAEFEAVKALARRLAEEKRPATEEEAELLRHDRMAVDIAMFGRMLAKKTDFNVEAACQVAHAFGVSETIIEDDFFTAVDDLRQASAEDAGAGHLGETGFGSALFYTYICIDKDLLVKNLNDNEELANKTLRAFTEAALKVSPTGKQNSFASRAYASWALAEKGTDQPRSLAAAFYEPINGTDQLNVAVKRITSLHKNMNKVYGQRTDTASFDVMNQQGSMEDVLDFICA,not soluble
12,MWITTTPWSKHSPNWVLADNGEKLIVPEIILGDAQGPTRNEWYIGLSSVLGFSFWSPDYDGVGTWLDAATQLNEQGGGDVITYSSGAHIVRTLLLAASQSNVHSTFTSKALGNDQTSSMTSSTTAVTVAKSGDGQQQTGEQKEEDWKDISKADLFKDDPYVLKNFGDSTTQAKMQSGGSTNSNGNGSQASLAFTKKALSLLKFLVDNKILKKDKVKEAIMNPDQYLSKRSKLDSNNQKPTKDDFIGSEFKDLYENAAKLNRFNSIWAEKDTDNAKFLITVVDSYFPVLPVPAAGLNETSPTLLKPWFQFRSAPSGNGTIRDYGFIPENK,soluble
13,MTEKKIDFKKEEKKFYAPKRKPERIFVPEMNFLMVDGKGDPDGEEYQKAVQSLYAIAYTIKMSKMGETRLDGYSDFVVPPLEGFWWSEGKFDLKDRDAWLWTSILRQPDFVTEEVLEWAKEVARKKKPDV,not soluble
14,EKFRWFISSEGFLVIGGKDATTNEIVVRKYLEENDLYCHADIWGAPHVVIKDGQKAGEKTIFEACQFAVSMSRAWSEGLYSADAYWVYPNQVKKQAPSGEFLPK,not soluble
15,MGSDKIHHHHHHMSKYESEVVVDGFHYLEGPRWYKDALWFVDFYTKGVYRVNDESVAEKIVHVEQQPSGLGWLPDGRMLIVSMKDRKVLRLEDNGELVVHADIWDHCEGHANDMVVAPNGNAYVGNFGFDLMGGADHKQTGLVLVKPDGNSQIVAEGLAFPNGMVISADEKTLIVNELFGNKISQFDINADGTLGEKRDFANFGDLGDEPNLGARIENANILPDGLALDSEGAVWIADTLNQRAVRISEGGEILDIVNTAPDGIFAVALGGQNGKTLFMCAAPDWDEASRTAETKGRMLSTQVKVGHAGTP,not soluble
16,MSSQIPFTVDHVGSFLRPETIKKARKKVQAGALSQAELRLIEDEEIKALVAKQKAGGLRGITDGEFRRGFWHIDFLEGLNGVTGYIPETGYNQTFHGKAAPAYNIRVVDKISFPTQHPFLEDFSFLKEVVEVGDGTVAKATIPSPTMILRQEILSNDGTSRIQTIYPEIGAFYKDLAQTYKDAIAAFYERGCRYLQFDDTNWAFLADQTKQEELRAKGIQPEEIAQVCTTIINEALAGKPEDLTVTTHICRGNHASSWLFSGGYEPIAKELFATNYDGFFLEYDSDRAGDFSPLRHWQNNGSKVVLGLVTSKFPELEETEQVKARIEEAQQFVPLENLSISPQCGFASTEEGNRLTEKEQWRKVQLLQEIAREVWLEHHHHHH,soluble
17,MSNQYINEPITTGKVTLETTAGDIEIELWTKEAPLACRNFIQLCMENYYKGTVFHRLVKNFILQGGDPTATGTGGESIYGKPFKDEIHQRLKFNRRGIVGMANAGRDDNGSQFFFTIGDRGAPELDKKHTIFGKVTGPTLFNMLKITEVETEGDRPVTFYKITGARIDNNPFDDLKPREKRKKEKSERRKEPKVVETKKTNLLSFGDEVEEDEQELAVFNKV,not soluble
18,MGSDKIHHHHHHMTLELIPVGISACLLGNPVRFDGGHKRLTFAVEELAPYFRFESVCPEMAIGLPVPRPALRLVREGESHVTMRASNGSSLDVTQQITVFSADKVSQLQHLCGYIVCAKSPSCGMERVKVYDEAQKNARKSGVGLFTQELMRQMPWLPVEEDGRLHDSGLRENFIERVYALHELNQLWKNGLSRGALIAFHSRYKLLLLAHSQPEYRELGPFVAGIDKWESLEEYVVEYRTRLMKLLSTPATRRNHTNVLMHVQGYFRRQLSSQQRQELAQLIDRYRQGLQPLLAPITLLKHYMAEYPDAYLAQQRYFEPYPEALRLRYGH,not soluble
19,MGSDKIHHHHHHMNRAATLAAYLTEKNWMSQPVSAGQVSFLAAGEYNENWLVQCGGRAAVLRINHGSQLGLRNQSEYEFSVLRHVASSGLTPQPYALDPLPWKHGPGKGAMLMEYIPGTPPDYRLHAADAARLFARVHGCPLPPRGDMIVQPDPVRDIARESTGLLHRQPDHPRSDIRTRLLNYRDTVLRLADDTAQLFAGEPQVITNTEVNSGNFIVLPPQHPRRGNEQAGVALCLVDWEKAVISCCHQDLGHFLVPTTTRWKTDFTFDAQSRTDFLRAYLQARHGSVDADALEALHLRTRVLERTILLRALSWCFMAWYEYSRGDRTLRNEFTYGRITSYLENIECILKYGE,not soluble
20,MSLEDVIEKLRELNEPVPVPLELPEEELLVEIEEELLIGIPAEFREFLLLVSDVVYGRLEPVTVTDPHSHTYLPEVAATAWDLGVPRELIPLCEDDGSYYCVAEDGEVVLWADGDLTDESWDSVWVWARDVWLESEGHHHHHH,soluble
21,MGSDKIHHHHHHMLMGSKDKVISILKEKGPISQTELSKLSGLSKSRLSEVLSELEKQGIVKRRKVLGKNLEVSLSQDRFLRLGIIRAAEYPFIIPFIKNLENRGYSVTVKIYENGIDLTRDLVEAKLDLGLSPIITQIIFSTIYRNIRIIGGGAKGGGGIIGKTCNRIASTVMSSMEIWAFSEFKNIEIIPSYSSYEMLDFLEKGIVDGIAIWEPFLSILERKGHKVHRFTPLHCCTLAVRETMDWERIKNIYEESFSWFKSSIDRWVSSYSNLLNIDYNILKEASKNYEFDYYLDLKEFKNSLKNTGIFIPI,not soluble
